Test results from PMC12474881.

Columns and labels:
[1] = molecular target: CaMKIIδ-0 F368A (human); test: mass photometry
[2] = molecular target: CaMKIIδ-0 F368A/L405M (human); test: mass photometry
[3] = molecular target: CaMKIIδ-0 F368A/Q407A (human); test: mass photometry
[4] = molecular target: CaMKIIα with exon 14 only as the variable linker (human)
[5] = molecular target: CaMKIIδ with exon 14 only as the variable linker (human)
[6] = molecular target: CaMKIIα with exon 18 only as the variable linker (human)
[7] = molecular target: CaMKIIβ with exon 14 only as the variable linker (human)
[8] = molecular target: CaMKIIα with basified exon 18 (human)
[9] = molecular target: CaMKIIα with the sequence of exon 18 reversed (human)
[10] = molecular target: CaMKIIα with acidic exon 14 (all basic residues of exon 14 mutated to acidic residues) (human)
[11] = molecular target: CaMKIIα mutants with acidic exon 18 positioned proximal to the regulatory segment
[12] = molecular target: CaMKIIα exon 18 with all Ser and Thr residues in exon 18 mutated to Ala (human)

Substance: CaMKIIδ-0 F368A (enzyme)
- percent of the total population as dimers at 25 nM [1]: 20%
- percent of the total population as dimers at 100 nM [1]: 10%
- percent of the total population as tetramers at 100 nM [1]: 5%
- stoichiometry N [1]: 14

Substance: CaMKIIδ-0 F368A/L405M (enzyme)
- percent of the population as tetradecameric holoenzyme at 100 nM [2]: 5%
- stoichiometry N [2]: 2

Substance: CaMKIIδ-0 F368A/Q407A (enzyme)
- percent of the population as tetradecameric holoenzyme at 100 nM [3]: 5%
- stoichiometry N [3]: 2

Substance: Calmodulin (Gallus gallus) (from UniProt P62149 1-149) (natural protein)
- EC50 of Ca2+/CaM for kinase activity against syntide-2 (coupled kinase assay) [4]: 17 nM
- EC50 of Ca2+/CaM for kinase activity against syntide-2 (coupled kinase assay) [5]: 20 nM
- EC50 of Ca2+/CaM for kinase activity against syntide-2 (coupled kinase assay) [6]: 193 nM
- EC50 of Ca2+/CaM for kinase activity against syntide-2 (coupled kinase assay) [7]: 20 nM
- EC50 of Ca2+/CaM for kinase activity against syntide-2 (coupled kinase assay) [8]: 34 nM
- EC50 of Ca2+/CaM for kinase activity against syntide-2 (coupled kinase assay) [9]: 41 nM
- EC50 of Ca2+/CaM for kinase activity against syntide-2 (coupled kinase assay) [10]: 102 nM
- EC50 of Ca2+/CaM for kinase activity (coupled kinase assay) [11]: 70 nM
- EC50 of Ca2+/CaM for kinase activity (coupled kinase assay) [12]: 350 nM
